Experimental data taken from PMC7870652.

What was measured:
[1] = target: CDH23 EC1-5/EC3-5 single-bond fusion protein (asymmetric Fc heterodimer with one EC1-2 binding domain) (mouse) (UniProt Q99PF4); assay: single-molecule force spectroscopy (optical tweezers); single-bond EC1-5/EC3-5 proteins, each on a DNA tether on a streptavidin bead in a dual-beam optical trap; 50 µM Ca2+, TBS buffer, room temperature; Bell-Evans fit of most-probable unbinding forces against loading rate, constants extrapolated to zero force
[2] = target: truncated CDH23 EC1-5 dimer fusion protein (two EC1-5 strands) (mouse); assay: BLI; CDH23 biotinylated on its SNAPtag and immobilised on streptavidin-coated PEG-biotin aminopropylsilane sensors; 10–300 nM PCDH15 in solution; TBS-Tween + Ca^2+ buffer, 2 mM Ca^2+; traces of a drift sensor and of PCDH15 lacking EC1-2 subtracted; dissociation fitted with a single exponential; on-rates measured at 300 nM PCDH15 (effective on-rate); Octet Red384

Row | koff [1] [s⁻¹] | mean lifetime of the connection at zero force [2] [s] | Substance
1 | 1.2 |  | PCDH15 EC1-5/EC3-5 single-bond fusion protein (asymmetric Fc heterodimer with one EC1-2 binding domain) (from UniProt Q99PJ1-1 27-1943; Q99PJ1-1 27-1943) (Fc fusion)
2 |  | 27.1 | truncated PCDH15 EC1-5 dimer fusion protein (two EC1-5 strands) (Fc fusion)
